In PMC10540216, “Activity Guided Azide-methyllysine Photo-trapping for Substrate Profiling of Lysine Demethylases” (Journal of the American Chemical Society, 2023):

Test system: KDM4A-I71AzF
Test: CASI: photo-crosslinking with HEK293T cell extracts, StrepTactin enrichment and LC-MS/MS proteomics;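 also: lysates from HEK293T cells pretreated with a KDM4 inhibitor to raise proteome methylation, affinity-purified after ±UV, gel-resolved, trypsin-digested, with exclusive unique peptides per protein averaged per condition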
Type: binding, human
Conditions: sheet "Final results but with 0.01"

B1: TPP1_HUMAN (protein, UniProt O14773 196-563, looked up)
Tripeptidyl-peptidase 1: LHLGVTPSVIRKRYNLTSQDVGSGTSNNSQACAQFLEQYFHDSDLAQFMRLFGGNFAHQASVARVVGQQGRGRAGIEASLDVQYLMSAGANISTWVYSSPGRHEGQEPFLQWLMLLSNESALPHVHTVSYGDDEDSLSSAYIQRVNTELMKAAARGLTLLFASGDSGAGCWSVSGRHQFRPTFPASSPYVTTVGGTSFQEPFLITNEIVDYISGGGFSNVFPRPSYQEEAVTKFLSSSPHLPPSSYFNASGRAYPDVAALSDGYWVVSNRVPIPWVSGTSASTPVFGGILSLINEHRILSGRPPLGFLNPRLYQQHGAGLFDVTRGCHESCLDEEVEGQGFCSGPGWDPVTGWGTPNFPALLKTLLNP
- Fold change (+UV/-UV): 0

B2: PUR8_HUMAN (protein, UniProt P30566 2-484, looked up)
Adenylosuccinate lyase: AAGGDHGSPDSYRSPLASRYASPEMCFVFSDRYKFRTWRQLWLWLAEAEQTLGLPITDEQIQEMKSNLENIDFKMAAEEEKRLRHDVMAHVHTFGHCCPKAAGIIHLGATSCYVGDNTDLIILRNALDLLLPKLARVISRLADFAKERASLPTLGFTHFQPAQLTTVGKRCCLWIQDLCMDLQNLKRVRDDLRFRGVKGTTGTQASFLQLFEGDDHKVEQLDKMVTEKAGFKRAFIITGQTYTRKVDIEVLSVLASLGASVHKICTDIRLLANLKEMEEPFEKQQIGSSAMPYKRNPMRSERCCSLARHLMTLVMDPLQTASVQWFERTLDDSANRRICLAEAFLTADTILNTLQNISEGLVVYPKVIERRIRQELPFMATENIIMAMVKAGGSRQDCHEKIRVLSQQAASVVKQEGGDNDLIERIQVDAYFSPIHSQLDHLLDPSSFTGRASQQVQRFLEEEVYPLLKPYESVMKVKAELCL
- Fold change (+UV/-UV): 0.3333

B3: CBS_HUMAN (protein, UniProt P35520 1-551, looked up)
Cystathionine beta-synthase: MPSETPQAEVGPTGCPHRSGPHSAKGSLEKGSPEDKEAKEPLWIRPDAPSRCTWQLGRPASESPHHHTAPAKSPKILPDILKKIGDTPMVRINKIGKKFGLKCELLAKCEFFNAGGSVKDRISLRMIEDAERDGTLKPGDTIIEPTSGNTGIGLALAAAVRGYRCIIVMPEKMSSEKVDVLRALGAEIVRTPTNARFDSPESHVGVAWRLKNEIPNSHILDQYRNASNPLAHYDTTADEILQQCDGKLDMLVASVGTGGTITGIARKLKEKCPGCRIIGVDPEGSILAEPEELNQTEQTTYEVEGIGYDFIPTVLDRTVVDKWFKSNDEEAFTFARMLIAQEGLLCGGSAGSTVAVAVKAAQELQEGQRCVVILPDSVRNYMTKFLSDRWMLQKGFLKEEDLTEKKPWWWHLRVQELGLSAPLTVLPTITCGHTIEILREKGFDQAPVVDEAGVILGMVTLGNMLSSLLAGKVQPSDQVGKVIYKQFKQIRLTDTLGRLSHILEMDHFALVVHEQIQYHSTGKSSQRQMVFGVVTAIDLLNFVAAQERDQK
- Fold change (+UV/-UV): 1.4

B4: TCPQ_HUMAN (protein, UniProt P50990 2-548, looked up)
T-complex protein 1 subunit …: ALHVPKAPGFAQMLKEGAKHFSGLEEAVYRNIQACKELAQTTRTAYGPNGMNKMVINHLEKLFVTNDAATILRELEVQHPAAKMIVMASHMQEQEVGDGTNFVLVFAGALLELAEELLRIGLSVSEVIEGYEIACRKAHEILPNLVCCSAKNLRDIDEVSSLLRTSIMSKQYGNEVFLAKLIAQACVSIFPDSGHFNVDNIRVCKILGSGISSSSVLHGMVFKKETEGDVTSVKDAKIAVYSCPFDGMITETKGTVLIKTAEELMNFSKGEENLMDAQVKAIADTGANVVVTGGKVADMALHYANKYNIMLVRLNSKWDLRRLCKTVGATALPRLTPPVLEEMGHCDSVYLSEVGDTQVVVFKHEKEDGAISTIVLRGSTDNLMDDIERAVDDGVNTFKVLTRDKRLVPGGGATEIELAKQITSYGETCPGLEQYAIKKFAEAFEAIPRALAENSGVKANEVISKLYAVHQEGNKNVGLDIEAEVPAVKDMLEAGILDTYLGKYWAIKLATNAAVTVLRVDQIIMAKPAGGPKPPSGKKDWDDDQND
- Fold change (+UV/-UV): 1

B5: LYSC_HUMAN (protein, UniProt P61626 19-148, looked up)
Lysozyme C: KVFERCELARTLKRLGMDGYRGISLANWMCLAKWESGYNTRATNYNAGDRSTDYGIFQINSRYWCNDGKTPGAVNACHLSCSALLQDNIADAVACAKRVVRDPQGIRAWVAWRNRCQNRDVRQYVQGCGV
- Fold change (+UV/-UV): 200

B6: IDHP_HUMAN (protein, UniProt P48735 40-452, looked up)
Isocitrate dehydrogenase …: ADKRIKVAKPVVEMDGDEMTRIIWQFIKEKLILPHVDIQLKYFDLGLPNRDQTDDQVTIDSALATQKYSVAVKCATITPDEARVEEFKLKKMWKSPNGTIRNILGGTVFREPIICKNIPRLVPGWTKPITIGRHAHGDQYKATDFVADRAGTFKMVFTPKDGSGVKEWEVYNFPAGGVGMGMYNTDESISGFAHSCFQYAIQKKWPLYMSTKNTILKAYDGRFKDIFQEIFDKHYKTDFDKNKIWYEHRLIDDMVAQVLKSSGGFVWACKNYDGDVQSDILAQGFGSLGLMTSVLVCPDGKTIEAEAAHGTVTRHYREHQKGRPTSTNPIASIFAWTRGLEHRGKLDGNQDLIRFAQMLEKVCVETVESGAMTKDLAGCIHGLSNVKLNEHFLNTTDFLDTIKSNLDRALGRQ
- Fold change (+UV/-UV): 0.4

B7: SYYM_HUMAN (protein, UniProt Q9Y2Z4 17-477, looked up)
Tyrosine--tRNA ligase, …: TLNLSVLLPLGLRKAHSGAQGLLAAQKARGLFKDFFPETGTKIELPELFDRGTASFPQTIYCGFDPTADSLHVGHLLALLGLFHLQRAGHNVIALVGGATARLGDPSGRTKEREALETERVRANARALRLGLEALAANHQQLFTDGRSWGSFTVLDNSAWYQKQHLVDFLAAVGGHFRMGTLLSRQSVQLRLKSPEGMSLAEFFYQVLQAYDFYYLFQRYGCRVQLGGSDQLGNIMSGYEFINKLTGEDVFGITVPLITSTTGAKLGKSAGNAVWLNRDKTSPFELYQFFVRQPDDSVERYLKLFTFLPLPEIDHIMQLHVKEPERRGPQKRLAAEVTKLVHGREGLDSAKRCTQALYHSSIDALEVMSDQELKELFKEAPFSEFFLDPGTSVLDTCRKANAIPDGPRGYRMITEGGVSINHQQVTNPESVLIVGQHILKNGLSLLKIGKRNFYIIKWLQL
- Fold change (+UV/-UV): 2

B8: RAD50_HUMAN (protein, UniProt Q92878 1-1312, looked up)
DNA repair protein RAD50: MSRIEKMSILGVRSFGIEDKDKQIITFFSPLTILVGPNGAGKTTIIECLKYICTGDFPPGTKGNTFVHDPKVAQETDVRAQIRLQFRDVNGELIAVQRSMVCTQKSKKTEFKTLEGVITRTKHGEKVSLSSKCAEIDREMISSLGVSKAVLNNVIFCHQEDSNWPLSEGKALKQKFDEIFSATRYIKALETLRQVRQTQGQKVKEYQMELKYLKQYKEKACEIRDQITSKEAQLTSSKEIVKSYENELDPLKNRLKEIEHNLSKIMKLDNEIKALDSRKKQMEKDNSELEEKMEKVFQGTDEQLNDLYHNHQRTVREKERKLVDCHRELEKLNKESRLLNQEKSELLVEQGRLQLQADRHQEHIRARDSLIQSLATQLELDGFERGPFSERQIKNFHKLVRERQEGEAKTANQLMNDFAEKETLKQKQIDEIRDKKTGLGRIIELKSEILSKKQNELKNVKYELQQLEGSSDRILELDQELIKAERELSKAEKNSNVETLKMEVISLQNEKADLDRTLRKLDQEMEQLNHHTTTRTQMEMLTKDKADKDEQIRKIKSRHSDELTSLLGYFPNKKQLEDWLHSKSKEINQTRDRLAKLNKELASSEQNKNHINNELKRKEEQLSSYEDKLFDVCGSQDFESDLDRLKEEIEKSSKQRAMLAGATAVYSQFITQLTDENQSCCPVCQRVFQTEAELQEVISDLQSKLRLAPDKLKSTESELKKKEKRRDEMLGLVPMRQSIIDLKEKEIPELRNKLQNVNRDIQRLKNDIEEQETLLGTIMPEEESAKVCLTDVTIMERFQMELKDVERKIAQQAAKLQGIDLDRTVQQVNQEKQEKQHKLDTVSSKIELNRKLIQDQQEQIQHLKSTTNELKSEKLQISTNLQRRQQLEEQTVELSTEVQSLYREIKDAKEQVSPLETTLEKFQQEKEELINKKNTSNKIAQDKLNDIKEKVKNIHGYMKDIENYIQDGKDDYKKQKETELNKVIAQLSECEKHKEKINEDMRLMRQDIDTQKIQERWLQDNLTLRKRNEELKEVEEERKQHLKEMGQMQVLQMKSEHQKLEENIDNIKRNHNLALGRQKGYEEEIIHFKKELREPQFRDAEEKYREMMIVMRTTELVNKDLDIYYKTLDQAIMKFHSMKMEEINKIIRDLWRSTYRGQDIEYIEIRSDADENVSASDKRRNYNYRVVMLKGDTALDMRGRCSAGQKVLASLIIRLALAETFCLNCGIIALDEPTTNLDRENIESLAHALVEIIKSRSQQRNFQLLVITHDEDFVELLGRSEYVEKFYRIKKNIDQCSEIVKCSVSSLGFNVH
- Fold change (+UV/-UV): 200

B9: MCCB_HUMAN (protein, UniProt Q9HCC0 23-563, looked up)
Methylcrotonoyl-CoA …: YHGDSVASLGTQPDLGSALYQENYKQMKALVNQLHERVEHIKLGGGEKARALHISRGKLLPRERIDNLIDPGSPFLELSQFAGYQLYDNEEVPGGGIITGIGRVSGVECMIIANDATVKGGAYYPVTVKKQLRAQEIAMQNRLPCIYLVDSGGAYLPRQADVFPDRDHFGRTFYNQAIMSSKNIAQIAVVMGSCTAGGAYVPAMADENIIVRKQGTIFLAGPPLVKAATGEEVSAEDLGGADLHCRKSGVSDHWALDDHHALHLTRKVVRNLNYQKKLDVTIEPSEEPLFPADELYGIVGANLKRSFDVREVIARIVDGSRFTEFKAFYGDTLVTGFARIFGYPVGIVGNNGVLFSESAKKGTHFVQLCCQRNIPLLFLQNITGFMVGREYEAEGIAKDGAKMVAAVACAQVPKITLIIGGSYGAGNYGMCGRAYSPRFLYIWPNARISVMGGEQAANVLATITKDQRAREGKQFSSADEAALKEPIIKKFEEEGNPYYSSARVWDDGIIDPADTRLVLGLSFSAALNAPIEKTDFGIFRM
- Fold change (+UV/-UV): 0.9333

B10: CH60_HUMAN (protein, UniProt P10809 27-573, looked up)
60 kDa heat shock protein, …: AKDVKFGADARALMLQGVDLLADAVAVTMGPKGRTVIIEQSWGSPKVTKDGVTVAKSIDLKDKYKNIGAKLVQDVANNTNEEAGDGTTTATVLARSIAKEGFEKISKGANPVEIRRGVMLAVDAVIAELKKQSKPVTTPEEIAQVATISANGDKEIGNIISDAMKKVGRKGVITVKDGKTLNDELEIIEGMKFDRGYISPYFINTSKGQKCEFQDAYVLLSEKKISSIQSIVPALEIANAHRKPLVIIAEDVDGEALSTLVLNRLKVGLQVVAVKAPGFGDNRKNQLKDMAIATGGAVFGEEGLTLNLEDVQPHDLGKVGEVIVTKDDAMLLKGKGDKAQIEKRIQEIIEQLDVTTSEYEKEKLNERLAKLSDGVAVLKVGGTSDVEVNEKKDRVTDALNATRAAVEEGIVLGGGCALLRCIPALDSLTPANEDQKIGIEIIKRTLKIPAMTIAKNAGVEGSLIVEKIMQSSSEVGYDAMAGDFVNMVEKGIIDPTKVVRTALLDAAGVASLLTTAEVVVTEIPKEEKDPGMGAMGGMGGGMGGGMF
- Fold change (+UV/-UV): 1.043

B11: GLYM_HUMAN (protein, UniProt P34897 30-504, looked up)
Serine …: NAAQTQTGEANRGWTGQESLSDSDPEMWELLQREKDRQCRGLELIASENFCSRAALEALGSCLNNKYSEGYPGKRYYGGAEVVDEIELLCQRRALEAFDLDPAQWGVNVQPYSGSPANLAVYTALLQPHDRIMGLDLPDGGHLTHGYMSDVKRISATSIFFESMPYKLNPKTGLIDYNQLALTARLFRPRLIIAGTSAYARLIDYARMREVCDEVKAHLLADMAHISGLVAAKVIPSPFKHADIVTTTTHKTLRGARSGLIFYRKGVKAVDPKTGREIPYTFEDRINFAVFPSLQGGPHNHAIAAVAVALKQACTPMFREYSLQVLKNARAMADALLERGYSLVSGGTDNHLVLVDLRPKGLDGARAERVLELVSITANKNTCPGDRSAITPGGLRLGAPALTSRQFREDDFRRVVDFIDEGVNIGLEVKSKTAKLQDFKSFLLKDSETSQRLANLRQRVEQFARAFPMPGFDEH
- Fold change (+UV/-UV): 0.3333
